Laboratory results reported in patent US20240002497A1 (Merck Sharp & Dohme, published 2024).

Tests used:
huNav1.7α + β1 [1] = biological target: T1, huNav1.7α + β1 (human); test: binding FACS, HEK
T1 construct: HEK293 cells; also called huNav1.7-beta1; huNav1.7-β1

huNav1.7α = biological target: T2, huNav1.7α (human, UniProt Q15858 1-1988); test: binding FACS, HEK
T2 construct: HEK cells expressing the α subunit without β subunits; also called huNav1.7 (alpha-subunit); Human Nav1.7α

rhNav1.7α + β1-β2-β3 [2] = biological target: rhNav1.7α + β1-β2-β3 (rhesus monkey); test: cell-based or functional assay
huNav1.7α + β1 [3] = biological target: T1, huNav1.7α + β1; test: cell-based or functional assay
rhNav1.7α + β1-β2-β3 [4] = biological target: rhNav1.7α + β1-β2-β3 (rhesus monkey); test: cell-based or functional assay; remark: listed apart in the source
huNav1.7α + β1 [5] = biological target: T1, huNav1.7α + β1; test: cell-based or functional assay; remark: listed apart in the source
huNav1.7α + β1-β2-β3 [6] = biological target: T3, huNav1.7α + β1-β2-β3 (human, UniProt Q15858 1-1988; A5A6L6 19-218; O60939 30-215; Q2KI11 23-215); test: competition FACS vs EC25 of 275B05(N93R), CHO FlpIn
T3 construct: also called huNav1.7-beta1-beta2-beta3; huNav1.7-β1-β2-β3

rhNav1.7α + β1-β2-β3 [7] = biological target: T4, rhNav1.7α + β1-β2-β3 (rhesus monkey); test: as above
T4 construct: also called rhNav1.7-beta1-beta2-beta3; rhNav1.7-β1-β2-β3

huNav1.7α + β1-β2-β3 [8] = biological target: T3, huNav1.7α + β1-β2-β3; test: competition FACS IC50 with 50 µM human SA against without
rhNav1.7α + β1-β2-β3 [9] = biological target: T4, rhNav1.7α + β1-β2-β3; test: as above
huNav1.7α + β1-β2-β3 [10] = biological target: T3, huNav1.7α + β1-β2-β3; test: competition FACS vs EC25 of 275B05(N93R), CHO FlpIn, + 50 µM human SA
rhNav1.7α + β1-β2-β3 [11] = biological target: T4, rhNav1.7α + β1-β2-β3; test: as above
huNav1.7α+β1-β2-β3 = biological target: T5, huNav1.7α+β1-β2-β3 (human, UniProt Q15858 1-1988; Q07699 19-218; O60939 30-215; Q9NY72 23-215); test: binding FACS
T5 construct: 5N11S variant; also called huNav1.7-beta1-beta2-beta3; huNav1.7α+Navβ1-Navβ2-Navβ3

rhNav1.7α+β1-β2-β3 = biological target: T6, rhNav1.7α+β1-β2-β3 (rhesus monkey α subunit with human β …); test: binding FACS
T6 construct: P2A cleaves it into α, β1, β2, β3; also called rhNav1.7-beta1-beta2-beta3

| Binder | EC50 (huNav1.7α + β1 [1]) | EC50 (huNav1.7α) | Qpatch IC50 [M], HEK cells (rhNav1.7α + β1-β2-β3 [2]) | Qpatch IC50 [M], HEK cells (huNav1.7α + β1 [3]) | QPatch electrophysiology IC50 [M], HEK cells (rhNav1.7α + β1-β2-β3 [4]) | QPatch electrophysiology IC50 [M], HEK cells (huNav1.7α + β1 [5]) | IC50 (huNav1.7α + β1-β2-β3 [6]) | IC50 (rhNav1.7α + β1-β2-β3 [7]) | Human SA ratio (huNav1.7α + β1-β2-β3 [8]) | Human SA ratio (rhNav1.7α + β1-β2-β3 [9]) | IC50 (huNav1.7α + β1-β2-β3 [10]) | IC50 (rhNav1.7α + β1-β2-β3 [11]) | fold improved binding vs F0103387G04 (huNav1.7α+β1-β2-β3) | fold improved binding vs F0103387G04 (rhNav1.7α+β1-β2-β3) |
| --- | --- | --- | --- | --- | --- | --- | --- | --- | --- | --- | --- | --- | --- | --- |
| F010301656 (VHH, also called F0103387G04(K33R, S50Y, S56D, N93R)-FLAG3-HIS6) VHH: EVQLVESGGGLAQPGGSLRLSCAASGPVFNINRMAWYRRAPGKQRELVAYVTPTGDISYTDSVKGRFTISRDGSKRWSLQMNSLTPEDTAVYYCRALLQPDSYSNTRTYWGQGTLVTVSS | 0.0042 µM | 0.0049 µM | 6e-09 M | 1.8e-08 M | 6e-09 M | 1.8e-08 M | 0.037 µM | 0.014 µM | 1 | 1 | 0.039 µM | 0.016 µM | – | – |
| F010302383 (VHH, also called F0103387G04(L11V, A12V, K33R, R39Q, S50Y, S56D, T60A, D72G, W78V, S79Y, T83R, V89L, N93R, D99S, N100cG)+FLAG3-HIS6) VHH: EVQLVESGGGVVQPGGSLRLSCAASGPVFNINRMAWYRQAPGKQRELVAYVTPTGDISYADSVKGRFTISRGGSKRVYLQMNSLRPEDTALYYCRALLQPSSYSGTRTYWGQGTLVTVSS | – | – | – | – | – | – | – | – | – | – | – | – | 2 fold | 20 fold |
